Assay: protease stability score; higher = more stable; yeast display proteolysis, trypsin and chymotrypsin;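 further: log10 excess protease needed over predicted unfolded state with 0 meaning unfolded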

Sequence	protease stability score
DEKELQKVLQKVMKLFQNGNIEELQKVVKDDVQLRYADKEYHGPDAVKTVVKRYRDLGAKVEYDELHVEGDKATAKVRADYGGTTVRMKVTYKVTGQKVDRMQVKYDEKAQKQIKHG	-0.142
DEKEMQEFAKEVVKMLQTGDERKNERNVDKDVRVKIGEKVLHGREDNSKWIQEWRDRVDHIRIDHVHVHGEKVIVTVTAVVNGVEVEFQMVMEVHNGRAENVQVKYRNPDELRRFKS	-0.263
DEKENKKLATELNQNLQTGDPDKLARLADPNARAQYGETTYHGRSQIKTMWETLSRQVDNVELKHMHVQGNEVEVVLTFNVNGKEYELRITASFKNGRLKDLQIDPDEIQRAEK	0.4
DEKEQADDAVRQLESAFNQGDWKKLADLFDENARVQYGDKELHGRQKWTTLVRDMEREHDHVEARVKSVHYHNGKIHLKIEIKAETNGRTTSVHVRYVAVVTNGRVEFENAKYS	0.973
DEKEQEDFARSFIEAFRTNDPSQIKTLMDEEATVSVGDKTYHGRKAAEDWATQLKEEVDHIDVKDLKVHNGHIEIEVRLKVNGHTRDYLISIQFHNGRVKRMSVSKQ	-0.432
DEKEQEVLDRFMRALRTGNPDDADKNVDKDVNVRYGDRTIKGRESFHEEIRREHQEIRLDYRSVNNQVHNGQANVDVDAIWNVNGRPHRVKVHIRAQIHDGRIKHQRFRMDPEEKKRVDS	0.054
DEKEQKENAKKMADAIERGDPDKLSELMDENAKVTVGDKTIHGRRQAHEWLKEFRDQADHVEIKEFTVNGNRVIIHVKVRHNGSESERVMTVSWHNGKVKSASFRSN	0.63
DEKEQTDILLRAMQILTHGDEKRFEELADPNVHVDVGDKTVHGRTQARKWYHDLRRQVDRIHIKHVTVKNGRATIDVVFDRNGRKEKMVLVIQAHNGKIKRAKVEES	-0.125
DEKESADRMIQRLQELMDQNNEEEIKNEVDENARAVVGDKEYHGDEQFAKALITVVKQYDHISIQIRSFTHTNGKNVATFEATFHHNGKNDTVKIEVVFDEVNGRHNLVRLVMK	1.22
DEKETHKVLEKIEKVLHNFNIDEAKKVLKDDVRVQYLDEEYHGPDAAEKRLTKVKKLGAQVEYKEAHVEGNRVKAKVQVNVGGRTLEFTVEYTAKGHKVDEFRVQYDEDAQKTIKHG	0.76
DEKETKKVLEQAAKLFVNGDVHRVMQLGADDVEVEYGDERYHGKDAAKRVIEKHQKLGIKVEYDELHVEGDRVKAKVRADQAGTTAHFTFEYKATGQRVDKMRVKYDETAQKMIKHG	-0.23
DEKETKKVLERIVKIFENGNAEEAKKMGKEDVEVEYGDETKHGPDALYEFIEKMKKLGAKVEYKEVHVEGDKVTVRIQADYGGRRAEMHVTYQATGNRVDNVKLKYSKTAQEMIKHG	0.084
DEKETQKLLEKLAKYFVNGDLEKVKKVGKEDVEVEYGSERKHGPDAMKEHVETHKRLGIEVRYEEVHVEGDTVTAKVQADVAGHTAEMTVVYQAQGRRVDKVKLKYSEKAQKAIKHG	-0.133
DEKETRKLLKDVAEAFENGNNEEIKKLLKDDVEVQYADKRVHGPDQVVEMVKKYQDLGAKVEYKKLDVRGDTVTVDVQADLGGRTAEFKVTYQAQGQKVDRFKVKYDETAKKLIKHG	0.22
DEKEVATRFVKTVVEILRRGNPDDWMKLVDPNATAHYGDKTYHGREELKTLMEDRNRHADRIDVDVKSYDAHNGKVQVHVVVVQTHNGRSTTHEVRIVADLHNGDAKIRSIQEQ	0.713
DEKEVKDADKEMERLMKKNDFQHIVDQMDPNAKIIVGDQDLHGKEEAEKVAQEMDKQIDSIEVKSVHAHGDKAVVHFVNHHNGRNKRVVITLRWSNGRIQEMQIQDQ	-0.157
DEKEVKDNAHDLFRAMQTGDEQEIENLMDENVEAQVGDTTWHGREEAARELVLTQKRYDRVRVDRIQVTGEDVKIDFKLNIDGTKETHILVMRVHNGKIVSMSNETR	1.51
DEKEVQKVLETMAKMFVNGNNEEVKKLGHDDIQVQYGDEEKHGPDAMVDFIKKYQDLGAEVEYKHLKVEGNEVEVDVEATLGGKTVRYKVKYEATGHKVHRVEVKYTDEAKDAIKKG	0.657
DEKEYAEQFFRHMEEIYQNGDEDRAQELFDPNARMEVGDKEVHGNEKFREEIHKIKETSDRFSIRVKEIDVHGDKIVVEAERSFEHNGQRRSEVYTVRMVIENGQAKIKSAHHK	0.235
DEKFKEAVERFIKALQDNNHKEMKDNADPNVKAQVGDSEVHGMDEMLRQLYKRYQELRVSYKHLSITVRGDKVEIRASVKLVHNGTPTEREVSVEVEAKNGRIKSMRINNTK	0.493
DEKHAHKIVRAWSQGDPDQLAELADPNVRLVVGDKTYDGRESFVKWLKDLRKRIDHVRVDSVKINGNKIEIDMRFQVDGVHLVVTVDIEFKNGKIKDVRIQYRDEEQLKDIKKVVR	1.2
DEKHAQHAAEIAEQGDPDEWEELADKDVKVDIGDQRVHGREQASSFWRKLREQADTIEYKSYRVDNGRVQLDFVVDINGHRLEFTLRFVVDNGRITEMEVQARDERQNEELKKIDS	0.524
DEKHDAKRVWETILNQLRRGDSEEFMKLADKDVKIEYGDKTIHGREDLKSWMNERQKDYDHLDADLTHMDVQGEDVNVTYTDRAKHNGTEHHRTVQAVFRVHNGRLRLQSWYHS	0.494
DEKHLERQVDHFLDALHRGDEDEAVNLADPDVEFQVGDRTYHGKEQLKEWLKRLVDRVDHVDIKNITVSGDKVEVHADFSVDGRKETMTFTVRAHNGRIKHMTIDKG	1.27
DEKHVKKVVDRVLDALEKKNKDELVKLVKPDVEFHVADTKFEGTDQLHKYYDKVFRKGVEFHVKEVKVEGNKAQVRYDVRAGGHQETVQFEVTVKDERVDRARAEMTEKYKKLVTKG	0.086

Sequence	protease stability score
DEKHYKKVLKRVLDYFMKGNKEQVKKIAKPDVEFHAGKMKIEGTDHLAKYYEKLQRKGVKLEIKEQHVTGDTVEVKYELEVGGTKVTVKATLKVKDDKVDKAEAKNDDDYHKRVKKG	0.117
DEKIKQNIEEFLKAVQHGDEERMTQLVDPNAKIVVGNQRVHGMEEYARDIVRKVKEIRIKIDRMHISVQGNKAVITMVYVININGKPVTFRAVYIYEVHDGRVKRVKNNIPEEDQKKVDS	0.733
DEKIVQAMKRYMDARQKGDPEDFNNLVDPNVRLNVGDKRVHGRERISEQIQREQRKMRIEIKHVEFRDQGEKVQLRVKYVVEINGRPRHASQRMEASLDDGKIKSIEIRVDEEVKKIEKV	-0.088
DEKKAEDAARQMLEALRTGDPKRMVDHMDPNARALVGDTRYHGREEASKMVEHIRRRVDHVRVDNFRVRGNKLHLHAVFDSNGRRERVQIRADVHNGKIKVFEITSQ	0.342
DEKKAEELAKKAFKYIENGDREEAQKMLKDNVEYHYANTTYHGKDAAKFVVDVVQKVGVEVKVQEQEVRGNTVRARFQYKNGDTEVETEVEVTYEGDRVKKAEVKLSEEVMKLVHQG	0.566
DEKKAEELARTVFEMADKGDKDTLRKIGMPNGEYKYVDKRYEGEQLALILVEQIKKVGAQVKVKRMEVRGDKVQADFDYEYGDKTVRTTARLEYKGDKLLRAEVEVSEEVKKIMTQG	-0.073
DEKKAEEMLRRVVKLFRNGDVETVRKMGKDDVEVKYLDETRHGPDAMKKMLEKMKKLGAEVEYKEVHVEGDKATVKVEANIDGTTVRFHVTYQVKDHRVENVKVEYSEKAKKAIKHG	0.754
DEKKAEEVATRVLEYIRDGNADDVKKLGKEGGQVQLGDTQLNGVDQLYKYVQDFHKQGIHVEYKEHEAKGDTVTFHTTARRGDAQIEFEVHYVVKGDVVERMEVRQDRKQVKEFKDS	-0.084
DEKKAKEAAHRLLEAMVTGDPRKLNENADEDVQVEYGDKSYTGREKLNEWAHEFQKRVDHVRIESIHQRGDTATVKVRVEHNGETDTFVLIVEAHNGRAKRIRQETR	1.11
DEKKAKELAETMFKYIQNGDEEKAQKYVDDNVEYKYIDKEYEGKDVVKEVVDKIKKLGVEVKLKRAEVKGDRVTADFEYKHGDNTVRTTVEVQYEGDRVKKARVELTDEARKVIDKG	0.352
DEKKALEIAEKVARYVAEGNSDKAKELGKEGVEAKVGDTTVHGPDQLKEYVKKVKDQGNRYEYKETHKEGNTVQFKTEVEKGNAKVEFTAEYQVEGDKLVRAEVRFNKEQQKKFQKS	-0.214
DEKKALEVIDRALKYVKNGNKEQVQQMGAPDVEVQNGDARNKGVEEMKKFAERVKKAGNQFEYKEKTTKGNKVKTVVQVTVNGQTIEYEVEVVAEGGKVKHWVVKMDETFKKVVDKS	0.008
DEKKALTLAKKAFEVIKKGDKEKAKKLGKPDVKYEYLDKKYTGPEAMEHIVEYVQKLGMEVRVKRNEEKGGTVRVDFDYQRGDQQVRTTAEVEYEGDKLKRFRVEMSEEVKKHITQG	0.093
DEKKAQKLMKKAFKMIKDGNEDEVRKLGKPNVKYEYADQQYEGEDAVRVAVQIVKRVGAEDKTETQEVKGDTARAVFVYKKGDTEVQTTAEVIYKGDKMEEARVKLSDEVKKVVHQG	0.124
DEKKATKVAKQIQDMMVKGDSDKVEKVGKPNVEFQVGDVKMKGPDELKKYYKKVKDVGNELHVKEAKVEGDTVEVHYDLRHGGTQATVTVRIELKDDKVDRAKVDVDEHYKKIVKKG	-0.068
DEKKDREAAQKAARAFVKGNKDKVKELGKEDVTAKFGDEEFRGVDQVTKAMEHWLKMGDQMQLREEKDEKNHVKVRTDQRVGGYEVTTEATYHAQGGRVDHAEDREPPEAQKLMQKG	-0.258
DEKKEEQWVRDVKKHAETGNWHDFWRQADPNVRFQVGDTTLRGREEAVKVAEDMRRQVDHQRVEHVDAHNGKVTVDAVLDINGRQQKVEYVVEMHNGRIKRINFSYS	-0.142
DEKKERQRAKELVKAMQHGDESKLKELLDENARLNVGDHKFHGMEEAHKTMRELWTRVDHLTVKSVDVTNGKIDIVVVFRHNGKNDRQVLEADVHNGRVRQQQIKSE	-0.14
DEKKIKDLARRVMQYYVSGNTEEVEKLGKDDVQVHFGDQTYHGVEQVKKVVKEFKEYGVELQLKDIQYDGDRADAEVEVHAGGHTWKFTVTVQLDGGKVDNLTFHVSDEAKKAIEHG	0.982
DEKKIKDLLLKLIEMYVSGNKEEVKKVGKDDVELHAGNQTYHGYEQMAKMAEKLKRYGVKLQITDAKVEGDKLTAKVDFHYGGETQKLEFVVQADGGKVDRMKIELSEEVVKVARKG	0.377
DEKKIKEYVHELNRAFQNGDEDRLNQMMDKNVRAQYGDKEYHGRENAKKVMKDFRDQFDHLEIHSVNVRGDRVDIEAEAHNNGRTEHWIITIRLHNGHMTSIVIRKS	-0.319
DEKKIYDLLKKMVEAYVSGNAEEVRKLLKDDGTLDVGDQQYHGVEQVTKAAEEFQKYGVELHLTDYRFDGDRVDVKAVAHLGGNTWEFTVTVQADGGKVDRLVFHVSEEAVKYIQKG	1.28
DEKKIYEVLHKAVQMYVSGNDEEVRKLLKKDAEIEVADHKYRGVDEVVKVVDQFRKYGVELQIDDAKFDGNKVNAELTLHAGGETWKFTVTAEADGGKVDKVTFHVTEEVKKRIQKG	-0.045
DEKKKAEEQHKKLEHALREGDPDEAKKMMDPNVRAQVGETKFHGREQMAKFWMTFNKRADHVEFELRDLHIENGRIRIHAVVRADVNGQTVRINIRIILTKHGDQFVAVRIEQK	0.499
DEKKLEELLRKLFEAAQKNNVDEMRKFLAPDVQYKYGDKRYEGEKVADTAVKVMREVGAEVRVKEEEVKGGEAEATFQYHKGDKTVETTARVRYEGDKVKEVEVKLSEEVKKILEQG	0.128

Reference: the NTF2 design screens of Basanta et al. (2020)
